The record followed here is the nanobody polyreactivity screen of Harvey et al. (2022).

This series in a line: yeast display, Sf9 membrane polyspecificity reagent, FACS + sequencing; frameworks hold sequencing errors. The method in brief: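 Galactose-induced (36–48 hours) yeast carrying a synthetic nanobody display library were exposed to 10% biotinylated, detergent-solubilized Sf9 membrane reagent at 4 °C for 1 hour. FACS followed streptavidin microbead enrichment, using low and high (top ~1%) gates for expression (anti-HA) and reagent binding (streptavidin). Colony PCR, MiSeq 2 × 250 sequencing and CDR-length filtering followed. Labels for polyreactivity reflect the gate of origin.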
In the case of “QVQLVESGGGLVQAGGSLRLSCAASGSTFDAYAMGWYRQAPGKERELVAAITNAGSTNYADSVKGRFTISRDNAKNTVYLQMNSLKPEDTAVYYCATDWYHRYLDGRYDYWGQGTQVTVSS”, the “polyreactivity (PSR sort gate)” value is “low polyreactivity”.
Under “QVQLVESGGGLVQAGGSLRLSCAASGSTFDDNAMGGYREAPRKERELVAGISDGDDSTNYADSVKGRFTISRDNAKNTVYLQMNSLTPEDTEVYFCNARYVRTYGVRFGYDYWGQGTQVTVSS” stands “low polyreactivity”; under “QVQLVESGGGLVQAGGSLRLSCAASGSTFDDNAMGWYRQAPGKDRELVAGISTNGGSTSYADSVKGRFTISRDNAKNTVYLPMNSLKPEDTAVYYCAKGLYVQFDYWGQGTQVTVSS”, “low polyreactivity”; under “QVQLVESGGGLVQAGGSLRLSCAASGSTFDDYDMGWYRQAPGKEREFVATIDWSGGSTYYADSVKGRFTNSRDNAKNTVYLQMNSLKPEDTAVYYCTALRYVVYFDDDYWGQGTQVTVSS”, “high polyreactivity”.
For “QVQLVESGGGLVQAGGSLRLSCAASGSTFDDYVMGWYRQAPGKERELVAGINSRGTSTDYADSVKGRFTISRDNAKNTVYLQMNSLIPEDTAVYYCAADDSHGYDYWGQGTQVTVSS” the value was “low polyreactivity”; for “QVQLVESGGGLVQAGGSLRLSCAASGSTFDGNAMGWYRQAPGKDRELVAAITWRDGSPSYADSVKGRFTISRDNAKNTVYLQMNSLKPEDTAVYYCNADPGYLDEEYWGQGTQVTVSS”, “low polyreactivity”.
Under “QVQLVESGGGLVQAGGSLRLSCAASGSTFDGNAMGWYRQAPGKERELVAAITYTTSSTYYADSVKGRFTISRDNAKNTVYLQMTSLKPEDTAVYYWGQGTQVTVSS” stands “low polyreactivity”.
Turning to “QVQLVESGGGLVQAGGSLRLSCAASGSTFDGNDMGWYRQAPGKERELVAAITIGGGSTYYADSVKGRFTISRDNAKNTVYLQMNSLKPEDTAVYYCAAVYFYSWEGDGDYWGQGTQVTVSS”, the “polyreactivity (PSR sort gate)” value is listed as “low polyreactivity”.
As for “QVQLVESGGGLVQAGGSLRLSCAASGSTFDGYAMGWSRQAPGKERELVAAITFDGSSTYYADSVKGRFTISRDNAKNTVYLQMNSLKPEDTAVYYCAAASSYWVLWDDYWGQGTQVTVSS”, the “polyreactivity (PSR sort gate)” value is “low polyreactivity”.
On to “QVQLVESGGGLVQAGGSLRLSCAASGSTFDGYAMGWYRQAPGKERELVAAINWGGGSTRYADSVKGRFTISRDNAKNTVYLQMNSVKPEDTAVYYCAARRFAYYFQYLVGGYWGQGTQVTVSS”, for which the “polyreactivity (PSR sort gate)” value is listed as “high polyreactivity”.
For “QVQLVESGGGLVQAGGSLRLSCAASGSTFDGYTMGWYRQAPGKERELVAAISWRGTSTYYADSVKGRFTISRDNAKNTVYLQMNSLKPEDTAVYYCGAENWKPRVYWIYSGHHGYWGQGTQVTVSS” the value was “low polyreactivity”.
With “QVQLVESGGGLVQAGGSLRLSCAASGSTFDINAMGWYRQAPGKERELVAAINWSGDSTYYADSVKGRFTISRDTAKNTVYLQMNSLKPEDTAVYYCNADTIVAWFDIFEEMDSWGQGTQVTVSS”, the “polyreactivity (PSR sort gate)” value is “low polyreactivity”.
In the case of “QVQLVESGGGLVQAGGSLRLSCAASGSTFDIYAMGWYRQAPGKERELVAAITSGGSTYADSVKGRFTISRDNAKNTVYLQKNSLKPVETAVYYSNADRWFGNYRHLTFLNDYWGQGTQVTVSA”, the “polyreactivity (PSR sort gate)” value is “low polyreactivity”.
Regarding “QVQLVESGGGLVQAGGSLRLSCAASGSTFDIYAMGWYRQAPGKERELVAAITVSGGSTYYADSVKGRFTISRDNAKNTVYLQMNSLKPEDTAVYYCNADWSGWQGWYNYWGQGTQVTVSS”, the “polyreactivity (PSR sort gate)” value is recorded as “low polyreactivity”.
Regarding “QVQLVESGGGLVQAGGSLRLSCAASGSTFDKNDMGWYRQAPGRERELVAAITSSGSSTYYADSVKGRFTISRDNAKNTVYLQMNSLKPADTAVYYCAADKYYYDRLSPSGDYWGQGTQVTVSS”, the “polyreactivity (PSR sort gate)” value is listed as “low polyreactivity”.
On to “QVQLVESGGGLVQAGGSLRLSCAASGSTFDNTMGWYRQEPGKEKEFVATISWRGGSTYYADSVKGRFTISRDNAKNTVYLQMNSLKPEDTAVYYCAAEVDYRVYWNEVDYWGQGTQVNVSS”, for which the “polyreactivity (PSR sort gate)” value was “low polyreactivity”.
Under “QVQLVESGGGLVQAGGSLRLSCAASGSTFDNYAMGWYRQAPGKERELVAAINSRGGRTYYADSVKGRFTISRDNAKNTVYLQMNSLKPDDTAVYYCAAVGATHRFDYWGQGTQVTVSS” stands “high polyreactivity”.
In the case of “QVQLVESGGGLVQAGGSLRLSCAASGSTFDNYAMGWYRQAPGKERELVAAITTGVTTYYADSVKGRFTISRDNAKNTVYLQMISLKPEDTAVYYCAADYVSYSQARHEYGYWGQGTQVTVSS”, the “polyreactivity (PSR sort gate)” value was “low polyreactivity”.
In the case of “QVQLVESGGGLVQAGGSLRLSCAASGSTFDPNVMGWYRQAPGKERELVAAISSIGGSTYYADSVKGRFTISRDNAKNTVYLQMNSLNPQDTAVYYCAAGYPRFGYDYWGQGTQVTVSS”, the “polyreactivity (PSR sort gate)” value was “high polyreactivity”.
Under “QVQLVESGGGLVQAGGSLRLSCAASGSTFDPYAMGWYRQAPGKERELVAAISRSGASTYADSVKGRFTISRDNAKNTVYLQMNSLKPEDTAVYYCAADSGYPYDYWGQGTQVTVSS” stands “low polyreactivity”.
Turning to “QVQLVESGGGLVQAGGSLRLSCAASGSTFDPYAMGWYRQAPGKERELVATINTGGDTHYADSVKGRFTISRDNAKNTVYLQMNSLKPEDTAVYYCNADYGKSRWIFDYWGQGTQVTVSS”, the “polyreactivity (PSR sort gate)” value was “low polyreactivity”.
Take “QVQLVESGGGLVQAGGSLRLSCAASGSTFDPYGKGWYRQAPGKERELVATITYSSGSTSYADSVKGRFTISRDHAKNTVYLQMNSLKPEDTAVYYCAKKYYTGYGYWGQGTQVTVSS”: the “polyreactivity (PSR sort gate)” value was “low polyreactivity”.
With “QVQLVESGGGLVQAGGSLRLSCAASGSTFDQNGMGWYRQAPGKERELVATISTSAGTYYADSVKGRFTISRDNAKNTVYLQMNSLKPEDTAVYYCNADLGGQYKEFDYWGQGTQVTVSS”, the “polyreactivity (PSR sort gate)” value is listed as “low polyreactivity”.
Under “QVQLVESGGGLVQAGGSLRLSCAASGSTFDQYAMGWYRQEPGKERELGAAISGSGGRTYYADSVKGRFTISRDNAKNTVYLQLNSLKPEDTAVYYCNTRAWRWGTDNSWGQGTQVTVSS” stands “high polyreactivity”; under “QVQLVESGGGLVQAGGSLRLSCAASGSTFDRNAMGWYRPAPGKERELVAAISWTGTSTRYADSVKGRFTISRDNAKNTVYLHMNSLKPEDTAGYYCAARGYSYYQRLYYWGQGTQVTVSS”, “high polyreactivity”.
“QVQLVESGGGLVQAGGSLRLSCAASGSTFDRNVMGWYRQAPGKERELVAAISRVSSTNYSDSVKGRFTISRDNAKNTVYLQMNSLKPEDTAVYYCAADRAGSIMNYWGQGTQVTVSS”: the “polyreactivity (PSR sort gate)” value is recorded as “low polyreactivity”.
As for “QVQLVESGGGLVQAGGSLRLSCAASGSTFDRYAMGGYIQAPGKERELVAAISWSGGSTYYADSVKGRFTISRDNAKNTVYFQMNSLKPEDTAVYYCASPYYYLHNQRYWGYDYWGQGTQVTVSS”, the “polyreactivity (PSR sort gate)” value is “high polyreactivity”.
On to “QVQLVESGGGLVQAGGSLRLSCAASGSTFDRYDMGWYRQAPGKERELVAAITRRGGSTYYADSVKGRFTISRDNAKNTVYLQMNSLKPEDTAVYYCNAKHFAYSVAHPYLRYGYDYWGQGTQVTVSS”, for which the “polyreactivity (PSR sort gate)” value was “low polyreactivity”.
For the sequence “QVQLVESGGGLVQAGGSLRLSCAASGSTFDSNAMGWYRQAPGKERELVAPISGSASRTYYADSVKGRFTISRDNAKNTVYLQMNSLKPEDTAVYYCAAVRYHMYYWGQGTQVTVSS”, the “polyreactivity (PSR sort gate)” value is given as “high polyreactivity”.
As to “QVQLVESGGGLVQAGGSLRLSCAASGSTFDSYAMGWYRPAPGKERELVAAISSGGSTNYADSVKGRFTISRDNAKNTVYLQMYSLKPEDTAVYYCAAYGGHIWWLYRHYGYDYWGQGTQVTVSS”, the “polyreactivity (PSR sort gate)” value was “low polyreactivity”.
For “QVQLVESGGGLVQAGGSLRLSCAASGSTFDTNAMGWSRQAPGKERELVAAISASGGSTYYADSVKGRFTISRDNAKNTVYLQMNSLKPEDTAVYYCAKTYSTRWWGNGGDYWGQGTQVTVSS” the value was “high polyreactivity”; for “QVQLVESGGGLVQAGGSLRLSCAASGSTFDTNAMGWYRQAPGKELVAAISSAGSTYYADSVKGRFTISRDNAKNTVYLQMNSLKPVATAVYYCAAGNAESPYESLEDDYWGQGTQVTVSS”, “low polyreactivity”; for “QVQLVESGGGLVQAGGSLRLSCAASGSTFDVNAMGWYRQAPGKERELVAAISWNSGSTYYADSVKGRFTISRDNAKNTVYLQMNSLKPEDTAVYYCAATYGTGRRSKYGYWGQGTQVTVSS”, “high polyreactivity”.
For “QVQLVESGGGLVQAGGSLRLSCAASGSTFDVYAMGGYRQAPGKERELVAVISSSDGGITYYADSVKGRFTISRDNAKNTVYLQMNSLKPEDTAVYYCNAESFIWLPQYSDYDYWGQGTQVTVSS” the value was “high polyreactivity”.
Turning to “QVQLVESGGGLVQAGGSLRLSCAASGSTFDVYAMGWYRQAPGKERELVAAITQSGGSTYYADSVKGRFTISRDNAKNTVYLQMNSLKTEDTAVYYCAAREWRSFDYWGQGTQVTVSS”, the “polyreactivity (PSR sort gate)” value was “low polyreactivity”.
Consider “QVQLVESGGGLVQAGGSLRLSCAASGSTFDVYAMGWYRQAPGKERELVAAITSGGTTNYADSVKGRFTISRDNAKNTVYLQMNSLKPEDTAVYYCAKDSRNVYWDYGYWGQGTQVTVSS”, for which the “polyreactivity (PSR sort gate)” value is given as “low polyreactivity”.
For “QVQLVESGGGLVQAGGSLRLSCAASGSTFDWYTMGWYRQAPGKERELVAAISSGGRTYYADSVKGRFTISRDNAKNTVYLQMNSLKPEDTAVYYCAVAWRVGITKYGYWGQGTQVTVSS” the value was “high polyreactivity”; for “QVQLVESGGGLVQAGGSLRLSCAASGSTFDWYVMGWYRKAPGKERELVAAINQGSGSTYYADSVKGRFTISRDNAKNTVYLQMNSLKPEDTAVYYCAADRYGAGYLYWPYDYWGQGTQVTVSS”, “low polyreactivity”; for “QVQLVESGGGLVQAGGSLRLSCAASGSTFDYNAMGWYRQAPGKEMELVAAISRGGNTDYADSVKGRFTISRDNAKNTVYLQMNSLKPEDSAVYYCDADALLEWFDVAYFAYEYWGQGTQVTVSS”, “low polyreactivity”.
In the case of “QVQLVESGGGLVQAGGSLRLSCAASGSTFDYNAMGWYRQAPGKERELVAAINSGASTYYADSVKGRFTISRDNAKNTVYLQMNSLKPEDTAVYYCAKDYPYIGDYWGQGTQVTVSS”, the “polyreactivity (PSR sort gate)” value is on record as “low polyreactivity”.
On to “QVQLVESGGGLVQAGGSLRLSCAASGSTFDYNAMGWYRQAPGKERELVAAIRWSGDTTYYADSVKGRFTISRDNAKNTVYLQRNSLKPEDTAVYYCANVPIYRYGVWAMNYWGQGTQVTVSS”, for which the “polyreactivity (PSR sort gate)” value was “high polyreactivity”.
